The target in data set [1] is constitutive Corelet construct PPID::FUSn::GFP::FTH1, where PPID=PDZ (UniProt P02794).
Data set [2] addresses constitutive Corelet construct PPID::FUSn::GFP::FTH1, where PPID=PTB (UniProt P02794).

Take “TAL1 C-terminally tagged with PDZ ligand”: the shikimate production result in data set [1] is reported as “The case when all four enzymes are recruited through expression with PTB/PDZ tags (+) shows enhanced shikimate production compared to when certain enzymes are removed from the cluster through expression without fusion to PTB/PDZ tag (-)”.
In the case of “TKL1 C-terminally tagged with PTB ligand”, the shikimate production entry in data set [2] was “The case when all four enzymes are recruited through expression with PTB/PDZ tags (+) shows enhanced shikimate production compared to when certain enzymes are removed from the cluster through expression without fusion to PTB/PDZ tag (-)”.

The values are drawn from US20230295638.
